The text below walks through data of patent US20120219562A1.

The target of test [1] is human interleukin 12 (p70 heterodimer of p35 and p40) (human) (UniProt P29459). The test is described as follows: SPR (BIAcore), off-rate.
Test [2] deals with human interleukin 12 (recombinant human IL-12, p70 heterodimer) (human) (UniProt P29459). The test is described as follows: cell-based or functional assay.
Chain of human interleukin 12 (recombinant human IL-12, p70 heterodimer) (human) (P29459 23-219, chain 1 of 2): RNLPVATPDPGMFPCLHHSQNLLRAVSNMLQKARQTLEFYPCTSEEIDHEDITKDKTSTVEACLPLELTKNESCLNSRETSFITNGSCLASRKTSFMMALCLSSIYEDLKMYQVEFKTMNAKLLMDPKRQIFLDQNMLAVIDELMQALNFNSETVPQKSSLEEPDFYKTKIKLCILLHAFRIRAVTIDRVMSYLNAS
Chain of human interleukin 12 (recombinant human IL-12, p70 heterodimer) (human) (P29460 23-328, chain 2 of 2, further chain): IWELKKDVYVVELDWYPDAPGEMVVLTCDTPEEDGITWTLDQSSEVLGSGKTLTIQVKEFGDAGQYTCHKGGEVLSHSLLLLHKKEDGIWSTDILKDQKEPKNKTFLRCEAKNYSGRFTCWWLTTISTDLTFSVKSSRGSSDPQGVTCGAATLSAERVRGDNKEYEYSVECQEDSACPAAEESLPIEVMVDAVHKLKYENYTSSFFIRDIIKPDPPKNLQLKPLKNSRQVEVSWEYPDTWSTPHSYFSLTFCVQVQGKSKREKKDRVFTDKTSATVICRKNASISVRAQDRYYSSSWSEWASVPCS

Chain of human interleukin 12 (p70 heterodimer of p35 and p40) (human) (P29459 23-219, chain 1 of 2): as the sequence (P29459 23-219, chain 1 of 2) above
Chain of human interleukin 12 (p70 heterodimer of p35 and p40) (human) (P29460 23-328, chain 2 of 2, further chain): as the sequence (P29460 23-328, chain 2 of 2, further chain) above

The substance “SEQ ID NO: 405 (Y61, S at H95) (antibody)” registered a koff in test [1] of 0.00193 s⁻¹.
“SEQ ID NO: 389 (Y61, G at H56) (antibody)”: the koff in test [1] was determined as 0.000272 s⁻¹.
The same measure, in the same setting: then “SEQ ID NO: 412 (Y61, P at H95) (antibody)”, with 0.00471 s⁻¹; and “SEQ ID NO: 469 (Y61, F at H102) (antibody)”, with 0.000318 s⁻¹; and “SEQ ID NO: 459 (Y61, K at H102) (antibody)”, with 0.000405 s⁻¹.
The same measure, in the same setting: then “SEQ ID NO: 445 (Y61, I at H98) (antibody)”, with 0.000343 s⁻¹.
With Y61-L94F (antibody), the PHA assay IC50 in test [2] was 0.06 nM.
Take “SEQ ID NO: 395 (Y61, E at H58) (antibody)”: the koff in test [1] worked out at 0.000416 s⁻¹.
In test [1], “SEQ ID NO: 450 (Y61, H at H101) (antibody)” displayed a dissociation rate constant (koff) of 0.00327 s⁻¹.
Same read-out and setting: then “SEQ ID NO: 426 (Y61, D at H97) (antibody)”, with 0.00202 s⁻¹.
Substance “SEQ ID NO: 398 (Y61, N at H58) (antibody)” gave an off-rate constant (koff) in test [1] of 0.000831 s⁻¹.
On the same count and under the same terms, the same measure for “SEQ ID NO: 431 (Y61, N at H97) (antibody)”: 0.00221 s⁻¹; for “SEQ ID NO: 464 (Y61, A at H102) (antibody)”: 0.000382 s⁻¹; for “SEQ ID NO: 423 (Y61, I at H96) (antibody)”: 0.00208 s⁻¹.
“SEQ ID NO: 404 (Y61, E at H95) (antibody)”: the koff in test [1] was found to be 0.00231 s⁻¹.
Still for that read-out and setting: then “SEQ ID NO: 463 (Y61, G at H102) (antibody)”, with 0.000692 s⁻¹.
In the case of “SEQ ID NO: 460 (Y61, R at H102) (antibody)”, the koff in test [1] turned out to be 0.000575 s⁻¹.
Take “SEQ ID NO: 454 (Y61, A at H101) (antibody)”: the off-rate constant (koff) in test [1] stood at 0.00106 s⁻¹.
In test [1], “SEQ ID NO: 465 (Y61, L at H102) (antibody)” showed a koff of 0.000956 s⁻¹.
Take “SEQ ID NO: 448 (Y61, S at H101) (antibody)”: in test [1], the off-rate constant (koff) was found to be 0.000449 s⁻¹.
The substance “SEQ ID NO: 410 (Y61, A at H95) (antibody)” registered a dissociation rate constant (koff) in test [1] of 0.0015 s⁻¹.
Substance “SEQ ID NO: 437 (Y61, W at H97) (antibody)” came in with a koff in test [1] of 0.00239 s⁻¹.
Same read-out and setting: the same measure for “SEQ ID NO: 467 (Y61, P at H102) (antibody)”: 0.00181 s⁻¹; for “SEQ ID NO: 399 (Y61, V at H58) (antibody)”: 0.000524 s⁻¹; for “SEQ ID NO: 385 (Y61, Y at H56) (antibody)”: 0.00039 s⁻¹.
In test [1], “SEQ ID NO: 433 (Y61, G at H97) (antibody)” gave a koff of 0.00229 s⁻¹.
In the case of “SEQ ID NO: 386 (Y61, H at H56) (antibody)”, the koff in test [1] was 0.00042 s⁻¹.
In test [1], “SEQ ID NO: 407 (Y61, K at H95) (antibody)” showed a koff of 0.00228 s⁻¹.
On to “SEQ ID NO: 458 (Y61, H at H102) (antibody)”, for which the koff in test [1] came out at 0.00018 s⁻¹.
As to “SEQ ID NO: 457 (Y61, S at H102) (antibody)”, the koff in test [1] was 0.000325 s⁻¹.
The substance “SEQ ID NO: 392 (Y61, I at H56) (antibody)” yielded an off-rate constant (koff) in test [1] of 0.000169 s⁻¹.
Take “SEQ ID NO: 452 (Y61, N at H101) (antibody)”: the koff in test [1] is 0.00223 s⁻¹.
For “SEQ ID NO: 428 (Y61, Y at H97) (antibody)”, the koff in test [1] worked out at 0.00273 s⁻¹.
Regarding “SEQ ID NO: 429 (Y61, H at H97) (antibody)”, the off-rate (koff) in test [1] came to 0.00191 s⁻¹.
As for “SEQ ID NO: 416 (Y61, H at H96) (antibody)”, the off-rate (koff) in test [1] came out at 0.000237 s⁻¹.
For the substance “SEQ ID NO: 413 (Y61, F at H95) (antibody)”, the koff in test [1] worked out at 0.00514 s⁻¹.
Y61 with H31S→E (antibody): in test [1], the koff came to 0.000219 s⁻¹.
“SEQ ID NO: 441 (Y61, T at H98) (antibody)” came in with a koff in test [1] of 0.000227 s⁻¹.
Substance “SEQ ID NO: 417 (Y61, R at H96) (antibody)” gave a dissociation rate constant (koff) in test [1] of 0.000982 s⁻¹.
In the case of “SEQ ID NO: 402 (Y61, P at H58) (antibody)”, the off-rate (koff) in test [1] was determined as 0.000628 s⁻¹.
In test [1], “SEQ ID NO: 425 (Y61, W at H96) (antibody)” showed an off-rate (koff) of 0.00197 s⁻¹.
Regarding “SEQ ID NO: 393 (Y61, P at H56) (antibody)”, the koff in test [1] stood at 0.000299 s⁻¹.
In test [1], “SEQ ID NO: 391 (Y61, L at H56) (antibody)” had a koff of 0.000264 s⁻¹.
For the substance “SEQ ID NO: 468 (Y61, W at H102) (antibody)”, in test [1], the off-rate (koff) is 0.000235 s⁻¹.
The same measure, in the same setting: then “SEQ ID NO: 442 (Y61, A at H98) (antibody)”, with 0.000673 s⁻¹; and “SEQ ID NO: 438 (Y61, F at H97) (antibody)”, with 0.0018 s⁻¹.
For “SEQ ID NO: 453 (Y61, G at H101) (antibody)”, the koff in test [1] came out at 0.00375 s⁻¹.
Regarding “SEQ ID NO: 440 (Y61, R at H98) (antibody)”, in test [1], the koff turned out to be 0.00034 s⁻¹.
The same measure, in the same setting: then “SEQ ID NO: 455 (Y61, V at H101) (antibody)”, with 0.00163 s⁻¹.
As to “SEQ ID NO: 456 (Y61, I at H101) (antibody)”, the koff in test [1] was determined as 0.00162 s⁻¹.
For the substance “SEQ ID NO: 436 (Y61, P at H97) (antibody)”, the off-rate constant (koff) in test [1] turned out to be 0.003 s⁻¹.
For the substance “SEQ ID NO: 414 (Y61, D at H96) (antibody)”, the koff in test [1] is 0.00224 s⁻¹.
Turning to “SEQ ID NO: 388 (Y61, T at H56) (antibody)”, in test [1], the koff stood at 0.000235 s⁻¹.
For the substance “SEQ ID NO: 400 (Y61, L at H58) (antibody)”, in test [1], the off-rate (koff) turned out to be 0.00073 s⁻¹.
In the case of “SEQ ID NO: 390 (Y61, M at H56) (antibody)”, the koff in test [1] was 0.000383 s⁻¹.
In turn, “SEQ ID NO: 411 (Y61, L at H95) (antibody)” displayed an off-rate (koff) in test [1] of 0.00147 s⁻¹.
As to “SEQ ID NO: 394 (Y61, F at H56) (antibody)”, the koff in test [1] amounted to 0.000345 s⁻¹.
Substance “SEQ ID NO: 451 (Y61, R at H101) (antibody)” displayed a koff in test [1] of 0.0011 s⁻¹.
On to Y61 with L50→Y (antibody), for which the off-rate (koff) in test [1] was 0.000174 s⁻¹.
On to “SEQ ID NO: 462 (Y61, T at H102) (antibody)”, for which the off-rate (koff) in test [1] came to 0.000333 s⁻¹.
In test [1], “SEQ ID NO: 409 (Y61, T at H95) (antibody)” yielded a koff of 0.00202 s⁻¹.
“SEQ ID NO: 396 (Y61, S at H58) (antibody)”: the off-rate constant (koff) in test [1] worked out at 0.000941 s⁻¹.
Regarding “SEQ ID NO: 424 (Y61, P at H96) (antibody)”, the koff in test [1] turned out to be 0.00129 s⁻¹.
Regarding “SEQ ID NO: 401 (Y61, I at H58) (antibody)”, the koff in test [1] was determined as 0.000657 s⁻¹.
“SEQ ID NO: 434 (Y61, A at H97) (antibody)” showed a koff in test [1] of 0.00143 s⁻¹.
Take “SEQ ID NO: 435 (Y61, I at H97) (antibody)”: the koff in test [1] amounted to 0.00208 s⁻¹.
Same read-out and setting: the same measure for “SEQ ID NO: 443 (Y61, V at H98) (antibody)”: 0.000293 s⁻¹.
In test [1], “SEQ ID NO: 415 (Y61, C at H96) (antibody)” displayed an off-rate constant (koff) of 0.000242 s⁻¹.
Y61-L94N (antibody): the PHA assay IC50 in test [2] was determined as 0.08 nM.
With “SEQ ID NO: 466 (Y61, I at H102) (antibody)”, the off-rate constant (koff) in test [1] worked out at 0.000996 s⁻¹.
Turning to “SEQ ID NO: 403 (Y61, F at H58) (antibody)”, the koff in test [1] was 0.000794 s⁻¹.
As for “SEQ ID NO: 421 (Y61, M at H96) (antibody)”, in test [1], the koff worked out at 0.00204 s⁻¹.
